From patent US5736143, “Anti-inflammatory, tolerogenic and immunoinhibiting properties of carbohydrate binding-peptides” (Alberta Research Council, dated 1998) come the findings set out here.

First the molecules themselves.
B1: fetuin (other)
chain: IPLDPVAGYKEPACDDPDTEQAALAAVDYINKHLPRGYKHTLNQIDSVKVWPRRPTGEVYDIEIDTLETTCHVLDPTPLANCSVRQQTQHAVEGDCDIHVLKQDGQFSVLFTKCDSSPDSAEDVRKLCPDCPLLAPLNDSRVVHAVEVALATFNAESNGSYLQLVEISRAQFVPLPVSVSVEFAVAATDCIAKEVVDPTKCNLLAEKQYGFCKGSVIQKALGGEDVRVTCTLFQTQPVIPQPQPDGAEAEAPSAVPDAAGPTPSAAGPPVASVVVGPSVVAVPLPLHRAHYDLRHTFSGVASVESSSGEAFHVGKTPIVGQPSIPGGPVRLCPGRIRYFKI
modifications: sialylated glycans (multiple copies of the αNeu5Ac(2→3)βGal(1→4)βGlc- structure)

No end group written: not given here. *: point of attachment. Biotin = O=C1N[C@H]2[C@H](CS[C@H]2CCCCC(=O)*)N1

Experiment [1] has as its target fetuin (Bos taurus (Bovine)) (UniProt P12763). The experiment in a line: inhibition ELISA; competitor SNA-biotin on coated fetuin; peptide 4.4 mg/mL.
For experiment [2] the target is unchanged. The experiment can be described thus: inhibition ELISA; competitor ACS2P1-biotin on coated fetuin; peptide 5520 µM.
The target of experiment [3] is asialofetuin (Bos taurus (Bovine)) (UniProt P12763). The experiment can be described thus: inhibition ELISA; competitor ACS2P1-biotin on coated asialofetuin; peptide 5520 µM.
In experiment [4] the target is fetuin (Bos taurus (Bovine)) (UniProt P12763). The experiment can be described thus: inhibition ELISA; competitor MAL-biotin on coated fetuin; peptide 4.4 mg/mL.
For experiment [5] the target is unchanged. The experiment in a line: inhibition ELISA; competitor PT-biotin on coated fetuin; peptide 4.4 mg/ml (repeats Table II).
Experiment [6] shares this target. The experiment can be described thus: inhibition ELISA; competitor MAL-biotin on coated fetuin; peptide 4.4 mg/ml (repeats Table II).
Experiment [7] has the same target. The experiment can be described thus: inhibition ELISA; competitor WGA-biotin on coated fetuin; peptide 4.4 mg/mL.
Experiment [8] has the same target. The experiment in a line: inhibition ELISA; competitor PT-biotin on coated fetuin; peptide 4.4 mg/mL.
The target is the same in experiment [9]. The experiment in a line: inhibition ELISA; competitor SNA-biotin on coated fetuin; peptide 4.4 mg/ml (Table II prints -2 ± 2).
The target of experiment [10] is asialofetuin (Bos taurus (Bovine)) (UniProt P12763). The experiment in a line: inhibition ELISA; competitor PT-biotin on coated asialofetuin; peptide 4.4 mg/mL.
For experiment [11], the target named is fetuin (Bos taurus (Bovine)) (UniProt P12763). The experiment in a line: inhibition ELISA; competitor WGA-biotin on coated fetuin; peptide 4.4 mg/ml (repeats Table II).
The target is the same in experiment [12]. The experiment in a line: inhibition ELISA; competitor MAL-biotin on coated fetuin; peptide 1.0 mg/mL.
Experiment [13] shares this target. The experiment can be described thus: inhibition ELISA; competitor PT-biotin on coated fetuin.
For experiment [14] the target is unchanged. The experiment in a line: inhibition ELISA; competitor WGA-biotin on coated fetuin.
Experiment [15] has the same target. The experiment in a line: inhibition ELISA; competitor WGA-biotin on coated fetuin; peptide 1.0 mg/mL.
The target is the same in experiment [16]. The experiment can be described thus: inhibition ELISA; competitor SNA-biotin on coated fetuin; peptide 1.0 mg/mL.
For experiment [17] the target is unchanged. The experiment can be described thus: inhibition ELISA; competitor PT-biotin on coated fetuin; peptide 1.0 mg/mL.
In experiment [18] the target is pertussis toxin (Bordetella pertussis) (UniProt P04977).
Experiment [19] concerns the target αNeuAc(2-3)βGal(1-3)βGlcNAc-BSA (bovine) (UniProt P02769). The experiment can be described thus: direct ELISA, 0.5 µg biotinylated peptide on BSA conjugate coated at 50 µg/mL.
Experiment [20] has as its target αNeuAc(2-3)βGal(1-3)βGlcNAc-BSA with (1-4) αFuc (bovine) (UniProt P02769). The description is as above.
For experiment [21], the target named is αNeuAc(2-6)βGal(1-4)βGlcNAc-BSA (bovine) (UniProt P02769). The description is as above.
The target in experiment [22] is αNeuAc(2-3)βGal(1-4)βGlcNAc-BSA with (1-3) αFuc (bovine) (UniProt P02769). The experiment is described as above.
Experiment [23] deals with αNeuAc(2-3)βGal(1-4)βGlcNAc-BSA (bovine) (UniProt P02769). Described as above.
Experiment [24] concerns the target T1, pertussis toxin (Bordetella pertussis, UniProt P04977). The experiment can be described thus: cell-based or functional assay.
The target of the next experiment is T2, asialoagalactofetuin (Bos taurus (Bovine), UniProt P12763, glycans without sialic acid and galactose (asialoagalacto-)).
T2 sequence: B1 chain
The experiment in a line: direct ELISA, 10 µg/ml biotinylated peptide on glycoprotein coated at 3 µg/ml.

The target in a further experiment is T3, asialofetuin (Bos taurus (Bovine), UniProt P12763, glycans without sialic acid (asialo-)).
T3 sequence: B1 chain
Described as above.

For experiment [25], the target named is αNeuAc(2-3)βGal(1-3)βGlcNAc-BSA with (1-4) αFuc (bovine, UniProt P02769, conjugated carbohydrate αNeuAc(2-3)βGal(1-3)[αFuc(1-4)]βGlcNAc-). The experiment can be described thus: direct ELISA, 0.1 µg biotinylated peptide on BSA conjugate coated at 50 µg/mL.
For experiment [26], the target named is αNeuAc(2-3)βGal(1-3)βGlcNAc-BSA (bovine, UniProt P02769, conjugated carbohydrate αNeuAc(2-3)βGal(1-3)βGlcNAc-). The experiment is described as above.
Experiment [27] concerns the target αNeuAc(2-3)βGal(1-4)βGlcNAc-BSA (bovine, UniProt P02769, conjugated carbohydrate αNeuAc(2-3)βGal(1-4)βGlcNAc-). The description is as above.
Experiment [28] concerns the target αNeuAc(2-3)βGal(1-4)βGlcNAc-BSA with (1-3) αFuc (bovine, UniProt P02769, conjugated carbohydrate αNeuAc(2-3)βGal(1-4)[αFuc(1-3)]βGlcNAc-). The description is as above.
Experiment [29] deals with αNeuAc(2-6)βGal(1-4)βGlcNAc-BSA (bovine, UniProt P02769, conjugated carbohydrate αNeuAc(2-6)βGal(1-4)βGlcNAc-). Described as above.
In experiment [30] the target is B1. The experiment in a line: inhibition ELISA; competitor WGA-biotin on coated fetuin.
In experiment [31] the target is B1. The experiment can be described thus: inhibition ELISA; competitor ACS2P1-biotin on coated fetuin; concentration giving -50% (called IC50 in paragraph 228, n=2).
For experiment [32], the target named is T1, pertussis toxin. The experiment can be described thus: inhibition ELISA; fetuin against ACS2P1-biotin on immobilised PT.

“SPYGRC (peptide; other documents disagree on this pair)”: the percent change in binding activity in experiment [1] is -2%; in experiment [2], -24%; in experiment [3], -54%; in experiment [4], -16%; in [7], 7%; in experiment [8] it was 34%. In addition, in experiment [10], the percent change in binding activity was determined as 7%. Further, the % changes in binding activity is 34% in [5], -16% in [6], -2% in experiment [9] and 7% in [11].
Consider WGA(62-73) (peptide), for which the percent change in binding activity was -1% in experiment [12], -9% in experiment [15], -3% in experiment [16] and -32% in experiment [17]. The values for the IC50 in experiment [13] and in experiment [14] were 1500 µM and 3400 µM, respectively.
In turn, SPYGRC (peptide) gave a Maximal Inhibitory Concentration for Greater than 50% Inhibition (CHO cell clumping) in [18] of 480 pg/mL.
Regarding “SPYGRC-biotin (peptide; other documents disagree on this pair)”, the % binding relative to fetuin in experiment [19] was determined as 97%; in [20], 103%; in [21], 122%; in [22], 120%; in [23] it was 120%.
As for PKALFTQQGGAYGRC [S3P1], in the experiment with pertussis toxin [24], the “Maximal Inhibitory Concentration for Greater than 50% Inhibition (CHO cell clumping)” value is > 300 ng/mL.
Take PQEQITQHGSPYGRC (biotinylated at the terminal proline; C-terminal -CO--NH2; acetylated (position not given)) [ACS2P1-biotin]: the “% binding relative to fetuin” value in the experiment with asialoagalactofetuin was 93%; in the experiment with asialofetuin, 45%; in experiment [25], 84%; in experiment [26], 70%; in experiment [27] it was 117%; in experiment [28] it was 84%. Besides, the “% binding relative to fetuin” value in [29] is 94%.
On to PQEQITQHGSPYGRC (also: acetylated, site not given here) [ACS2P1], for which the IC50 came to 3250 µM in the experiment with fetuin [30] and 4.1 µM in the experiment with fetuin [31].
With RLLASTNSRLCAVFVRDG [S3P9a], the “Maximal Inhibitory Concentration for Greater than 50% Inhibition (CHO cell clumping)” value with pertussis toxin [24] was > 300 ng/mL.
Consider VAPGIVIPPKALFTQQGGAYGRC [S3P2], for which the “Maximal Inhibitory Concentration for Greater than 50% Inhibition (CHO cell clumping)” value in the experiment with pertussis toxin [24] is > 300 ng/mL.
The molecule B1 came in with an IC50 with pertussis toxin [32] of 50 µM.
With STPGIVIPPQEQITQHGSPYGRC [S2P2], in the experiment with pertussis toxin [24], the “Maximal Inhibitory Concentration for Greater than 50% Inhibition (CHO cell clumping)” value was > 300 ng/mL.
